Source: PMC3137072

Target: microtubules (polymerized tubulin) (UniProt Q6B856)
Sequence (Q6B856 whole entry, looked up): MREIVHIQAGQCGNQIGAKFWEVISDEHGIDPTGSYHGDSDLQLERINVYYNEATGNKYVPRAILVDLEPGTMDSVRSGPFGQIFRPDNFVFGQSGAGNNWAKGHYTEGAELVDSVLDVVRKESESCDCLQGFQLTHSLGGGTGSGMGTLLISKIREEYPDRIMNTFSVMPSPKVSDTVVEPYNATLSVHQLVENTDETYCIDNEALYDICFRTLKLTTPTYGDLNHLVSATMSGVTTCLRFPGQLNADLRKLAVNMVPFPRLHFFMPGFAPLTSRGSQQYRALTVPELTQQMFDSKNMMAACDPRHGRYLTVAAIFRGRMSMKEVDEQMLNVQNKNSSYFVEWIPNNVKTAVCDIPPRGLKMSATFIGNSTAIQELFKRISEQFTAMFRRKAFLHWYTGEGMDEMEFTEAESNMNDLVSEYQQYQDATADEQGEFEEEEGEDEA

B1: GAS2-like 3 (G2L3), full length, GFP-tagged (natural protein)
chain: MQPAIQVWFGEDLPLSPRSPLTPRHGPGLANVCQYDEWIAVRHEATLLPMQEDLSIWLSGLLGIKVKAEKLLEELDNGVLLCQLIDVLQNMVKTCNSEESGNFPMRKVPCKKDAASGSFFARDNTANFLHWCRDIGVDETYLFESEGLVLHKDPRQVYLCLLEIGRIVSRYGVEPPVLVKLEKEIELEETLLNTSGPEDSISIPKSCCRHEELHEAVKHIAEDPPCSCSHRFSIEYLSEGRYRLGDKILFIRMLHGKHVMVRVGGGWDTLQGFLLKYDPCRILQFATLEQKILAFQKGVSNESVPDSPARTPQPPEMNPLSAVNMFQKQNSKPSVPVSIPKSKEKQGRPPGALVPASSLKGGNLGSMSVRSKLPNSPAASSHPKLKSSKGITKKPQAPSNNASSSLASLNPVGKNTSSPALPRTAPCISESPRKCISSPNTPKAKVIPAQNSADLPESTLLPNKCSGKTQPKYLKHNHISSRDNAVSHLAAHSNSSSKCPKLPKANIPVRPKPSFQSSAKMTKTSSKTIATGLGTQSQPSDGAPQAKPVPAQKLKSALNLNQPVSVSSVSPVKATQKSKDKNIVSATKKQPQNKSAFQKTGPSSLKSPGRTPLSIVSLPQSSTKTQTAPKSAQTVAKSQHSTKGPPRSGKTPASIRKPPSSVKDADSGDKKPTAKKKEDDDHYFVMTGSKKPRK
**Q.** B1 was tested. Which FRAP, t½ of recovery of GFP-tagged full-length G2L3 on MTs in NIH3T3 cells did it give?
**A.** Its FRAP, t½ of recovery of GFP-tagged full-length G2L3 on MTs in NIH3T3 cells is 14.9 s.
